Measurements from patent US20200231654A1 (published 2020).
Numbering of substitutions follows the chain as printed.

T1: Neutrophil elastase (human) (human, UniProt P08246 30-247)
T1 chain: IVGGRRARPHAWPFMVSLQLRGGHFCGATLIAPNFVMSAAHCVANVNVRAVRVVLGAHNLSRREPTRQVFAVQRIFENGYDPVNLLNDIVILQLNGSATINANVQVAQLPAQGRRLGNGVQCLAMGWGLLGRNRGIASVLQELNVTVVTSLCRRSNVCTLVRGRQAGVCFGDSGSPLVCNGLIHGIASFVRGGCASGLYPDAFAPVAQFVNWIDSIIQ

T2: Recombinant Human Matriptase/ST14 Catalytic Domain (human, UniProt Q9Y5Y6 596-855)
T2 chain: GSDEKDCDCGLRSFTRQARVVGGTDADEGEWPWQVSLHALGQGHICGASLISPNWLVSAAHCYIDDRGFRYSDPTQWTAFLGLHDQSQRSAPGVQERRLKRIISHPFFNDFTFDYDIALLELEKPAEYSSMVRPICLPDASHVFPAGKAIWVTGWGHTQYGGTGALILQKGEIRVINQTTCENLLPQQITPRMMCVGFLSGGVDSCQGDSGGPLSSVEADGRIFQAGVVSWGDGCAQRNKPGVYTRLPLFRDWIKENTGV

T3: Plasmin from human plasma (human, UniProt P00747 97-810)
T3 chain: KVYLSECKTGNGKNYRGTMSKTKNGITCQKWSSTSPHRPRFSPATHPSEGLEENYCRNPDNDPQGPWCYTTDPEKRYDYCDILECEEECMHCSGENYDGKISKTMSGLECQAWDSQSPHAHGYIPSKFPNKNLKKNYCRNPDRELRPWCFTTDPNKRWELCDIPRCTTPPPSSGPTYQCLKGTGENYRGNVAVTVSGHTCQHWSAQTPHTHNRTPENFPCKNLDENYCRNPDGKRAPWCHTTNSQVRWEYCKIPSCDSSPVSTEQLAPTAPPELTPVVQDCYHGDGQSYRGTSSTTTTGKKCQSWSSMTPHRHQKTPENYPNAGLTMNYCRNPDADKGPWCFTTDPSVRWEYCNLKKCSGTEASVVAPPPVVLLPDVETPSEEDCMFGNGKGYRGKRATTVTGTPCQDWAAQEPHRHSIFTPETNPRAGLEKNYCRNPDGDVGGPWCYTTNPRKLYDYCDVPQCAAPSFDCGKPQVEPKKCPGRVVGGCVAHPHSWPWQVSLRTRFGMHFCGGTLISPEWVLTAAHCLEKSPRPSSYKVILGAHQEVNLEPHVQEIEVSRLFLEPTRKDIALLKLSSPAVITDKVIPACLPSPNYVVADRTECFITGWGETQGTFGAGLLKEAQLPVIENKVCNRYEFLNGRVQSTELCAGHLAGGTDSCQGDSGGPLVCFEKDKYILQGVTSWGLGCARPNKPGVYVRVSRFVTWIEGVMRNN

T4: Chymase human recombinant expressed in Pichia pastoris (human, UniProt P23946 22-247)
T4 chain: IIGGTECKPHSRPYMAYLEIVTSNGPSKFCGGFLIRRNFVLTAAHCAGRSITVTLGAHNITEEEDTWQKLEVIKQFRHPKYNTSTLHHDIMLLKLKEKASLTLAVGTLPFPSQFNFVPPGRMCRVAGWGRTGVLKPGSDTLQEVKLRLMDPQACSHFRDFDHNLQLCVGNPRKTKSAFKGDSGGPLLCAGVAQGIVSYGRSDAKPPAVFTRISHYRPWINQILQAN

B1: active MMP-9-binding peptide M91004 (designed binder)
chain: GSGMKETAAAKFERQHMDSPDLGTDDDDKAMADIGSANSDPQFGLFSKYRTPNCRQRKGPSCQMAFQPVCGSDMSTYANECTLCMKIREGGHNIKIIRNGPCGASAAA
B2: active MMP-9-binding peptide M91011 (designed binder)
chain: B1 chain with R55M, Q56M, R57Y, G59Y, P60A, S61Q, Q63S, M64H, A65K, F66S
B3: active MMP-9-binding peptide M91005 (designed binder)
chain: B1 chain with Q56K, K58G, A65S, F66Y, Q67N
B4: active MMP-9-binding peptide M91001 (designed binder)
chain: B1 chain with R55Q, Q56R, R57G, K58I, A65S, F66Y, Q67K
B5: active MMP-9-binding peptide M91010 (designed binder)
chain: B1 chain with Q56K, R57V, K58G, G59E, S61A, A65S, Q67N
B6: active MMP-9-binding peptide M91002 (designed binder)
chain: B1 chain with Q56T, R57G, K58R, S61A, A65G
B7: active MMP-9-binding peptide M91012 (designed binder)
chain: B1 chain with Q56V, K58G, A65S, Q67N
B8: active MMP-9-binding peptide M91014 (designed binder)
chain: GSGMKETAAAKFERQHMDSPDLGTDDDDKAMADIGSANSDPQFGLFSKYRTPNCVMYKYAQCSHKYKPVCGSDMSTYANECTLCMKIREGGHNIKIIRNGPCGASAAA

Molecular target: active mMMP-9(cat)_FLAG_Avi (UniProt P41245 108-450)
Assay: enzyme inhibition; substrate peptide

Sequence of active mMMP-9(cat)_FLAG_Avi (P41245 other isoform, or with tags, fused parts or gaps): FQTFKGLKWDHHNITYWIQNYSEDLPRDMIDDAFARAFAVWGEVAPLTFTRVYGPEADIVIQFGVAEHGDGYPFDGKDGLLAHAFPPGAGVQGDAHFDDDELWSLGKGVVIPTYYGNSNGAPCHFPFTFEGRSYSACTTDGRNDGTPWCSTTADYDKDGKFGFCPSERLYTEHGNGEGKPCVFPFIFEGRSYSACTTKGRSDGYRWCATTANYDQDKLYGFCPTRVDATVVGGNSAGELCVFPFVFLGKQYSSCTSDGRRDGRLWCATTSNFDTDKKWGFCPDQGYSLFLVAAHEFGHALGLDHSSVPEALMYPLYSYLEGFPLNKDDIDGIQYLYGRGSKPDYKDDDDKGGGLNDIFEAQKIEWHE

Binder	IC50 [nM]
B1	7.1
B2	21
B3	8.4
B4	4.1
B5	5
B6	5.1
B7	7.8
B8	9.2

Molecular target: biotin-labeled active hMMP-9(cat)_FLAG_Avi (UniProt P14780 107-449, biotin on the Avi tag (biotin ligase BirA))
Assay: ELISA

Sequence of biotin-labeled active hMMP-9(cat)_FLAG_Avi (P14780 other isoform, or with tags, fused parts or gaps): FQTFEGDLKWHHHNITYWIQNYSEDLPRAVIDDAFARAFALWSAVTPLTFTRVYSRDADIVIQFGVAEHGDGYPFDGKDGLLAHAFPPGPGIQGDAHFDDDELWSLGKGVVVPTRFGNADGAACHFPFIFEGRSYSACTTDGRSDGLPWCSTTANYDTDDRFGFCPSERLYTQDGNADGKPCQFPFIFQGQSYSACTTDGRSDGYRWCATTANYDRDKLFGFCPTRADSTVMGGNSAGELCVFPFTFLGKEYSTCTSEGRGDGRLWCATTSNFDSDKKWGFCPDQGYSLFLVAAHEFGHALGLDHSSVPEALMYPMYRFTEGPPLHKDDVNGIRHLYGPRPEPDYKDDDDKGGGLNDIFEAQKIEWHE

Binder	EC50 [nM]
B1	42
B2	16
B3	46
B4	22
B5	48
B6	47
B7	46
B8	8

Molecular target: α-Chymotrypsin from human pancreas (human, UniProt P17538 19-263)
Assay: substrate peptide degradation inhibition

Sequence of α-Chymotrypsin from human pancreas (P17538 19-263): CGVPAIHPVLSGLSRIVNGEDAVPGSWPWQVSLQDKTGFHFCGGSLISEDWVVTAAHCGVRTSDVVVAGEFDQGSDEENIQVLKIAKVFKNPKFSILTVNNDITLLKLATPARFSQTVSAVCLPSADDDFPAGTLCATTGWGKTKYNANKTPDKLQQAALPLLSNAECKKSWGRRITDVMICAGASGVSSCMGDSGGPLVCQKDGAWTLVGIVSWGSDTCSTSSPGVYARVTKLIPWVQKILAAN

Binder	IC50 [nM]
B1	> 1000
B2	> 1000
B3	> 1000
B4	> 1000
B5	> 1000
B6	> 1000
B7	> 1000
B8	> 1000

Molecular target: T1, Neutrophil elastase (human)
Assay: substrate peptide degradation inhibition

Binder	IC50 [nM]
B1	> 1000
B2	> 1000
B3	> 1000
B4	> 1000
B5	> 1000
B6	> 1000
B7	> 1000
B8	> 1000

Molecular target: Thrombin from human plasma (human, UniProt P00734 328-622)
Assay: substrate peptide degradation inhibition

Binder	IC50 [nM]
B1	> 1000
B2	> 1000
B3	> 1000
B4	> 1000
B5	> 1000
B6	> 1000
B7	> 1000
B8	> 1000

Molecular target: urokinase from human urine (human, UniProt P00749 21-431)
Assay: substrate peptide degradation inhibition

Binder	IC50 [nM]
B1	> 1000
B2	> 1000
B3	> 1000
B4	> 1000
B5	> 1000
B6	> 1000
B7	> 1000
B8	> 1000

Molecular target: Trypsin from Human Pancreas (human, UniProt P07477 24-247)
Assay: substrate peptide degradation inhibition

Binder	IC50 [nM]
B1	> 1000
B2	> 1000
B3	> 1000
B4	> 1000
B5	> 1000
B6	> 1000
B7	> 1000
B8	> 1000

Molecular target: Tryptase from human lung (human, UniProt Q15661 31-275)
Assay: substrate peptide degradation inhibition

Sequence of Tryptase from human lung (Q15661 31-275): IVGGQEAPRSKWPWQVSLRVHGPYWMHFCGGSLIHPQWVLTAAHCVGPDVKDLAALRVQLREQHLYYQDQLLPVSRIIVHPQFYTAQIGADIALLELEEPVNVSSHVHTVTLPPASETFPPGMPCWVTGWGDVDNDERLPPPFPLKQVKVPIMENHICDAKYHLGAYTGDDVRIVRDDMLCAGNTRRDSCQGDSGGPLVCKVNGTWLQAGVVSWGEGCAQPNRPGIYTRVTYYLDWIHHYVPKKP

Binder	IC50 [nM]
B1	> 1000
B2	> 1000
B3	> 1000
B4	> 1000
B5	> 1000
B6	> 1000
B7	> 1000
B8	> 1000

Molecular target: Protein C from human plasma (human, UniProt P04070 43-461)
Assay: substrate peptide degradation inhibition

Sequence of Protein C from human plasma (P04070 43-461): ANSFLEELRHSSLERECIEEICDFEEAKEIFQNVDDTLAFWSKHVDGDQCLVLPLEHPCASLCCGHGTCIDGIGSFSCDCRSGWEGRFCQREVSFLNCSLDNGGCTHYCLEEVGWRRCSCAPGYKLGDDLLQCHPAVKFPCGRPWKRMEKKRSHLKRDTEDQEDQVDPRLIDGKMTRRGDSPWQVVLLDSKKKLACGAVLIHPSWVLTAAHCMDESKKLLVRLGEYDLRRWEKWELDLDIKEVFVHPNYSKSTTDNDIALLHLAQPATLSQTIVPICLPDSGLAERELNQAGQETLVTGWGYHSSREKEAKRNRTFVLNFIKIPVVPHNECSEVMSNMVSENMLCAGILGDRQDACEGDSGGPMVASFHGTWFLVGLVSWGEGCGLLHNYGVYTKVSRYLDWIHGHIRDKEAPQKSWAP

Binder	IC50 [nM]
B1	> 1000
B2	> 1000
B3	> 1000
B4	> 1000
B5	> 1000
B6	> 1000
B7	> 1000
B8	> 1000

Molecular target: T2, Recombinant Human Matriptase/ST14 …
Assay: substrate peptide degradation inhibition

Binder	IC50 [nM]
B1	> 1000
B2	> 1000
B3	> 1000
B4	> 1000
B5	> 1000
B6	> 1000
B7	> 1000
B8	> 1000

Molecular target: tissue plasminogen activator human (human, UniProt P00750 36-562)
Assay: substrate peptide degradation inhibition

Sequence of tissue plasminogen activator human (P00750 36-562): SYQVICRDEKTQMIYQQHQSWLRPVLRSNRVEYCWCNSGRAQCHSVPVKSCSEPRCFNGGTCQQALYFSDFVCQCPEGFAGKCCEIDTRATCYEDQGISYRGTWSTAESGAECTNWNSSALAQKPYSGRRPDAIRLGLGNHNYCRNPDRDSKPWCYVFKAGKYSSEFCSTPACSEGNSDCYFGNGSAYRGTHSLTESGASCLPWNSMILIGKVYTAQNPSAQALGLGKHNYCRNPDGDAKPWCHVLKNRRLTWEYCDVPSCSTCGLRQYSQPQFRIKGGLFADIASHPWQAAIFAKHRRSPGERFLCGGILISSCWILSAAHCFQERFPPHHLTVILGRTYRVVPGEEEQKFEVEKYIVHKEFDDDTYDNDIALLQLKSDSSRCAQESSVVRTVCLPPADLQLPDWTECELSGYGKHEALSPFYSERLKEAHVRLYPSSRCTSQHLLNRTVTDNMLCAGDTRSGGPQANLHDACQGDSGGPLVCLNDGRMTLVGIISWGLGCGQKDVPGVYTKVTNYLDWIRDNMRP

Binder	IC50 [nM]
B1	> 1000
B2	> 1000
B3	> 1000
B4	> 1000
B5	> 1000
B6	> 1000
B7	> 1000
B8	> 1000

Molecular target: T3, Plasmin from human plasma
Assay: substrate peptide degradation inhibition

Binder	IC50 [nM]
B1	> 1000
B2	> 1000
B3	> 1000
B4	> 1000
B5	> 1000
B6	> 1000
B7	> 1000
B8	> 1000

Molecular target: T4, Chymase human recombinant expressed in …
Assay: substrate peptide degradation inhibition

Binder	IC50 [nM]
B1	> 1000
B2	> 1000
B3	> 1000
B4	> 1000
B5	> 1000
B6	> 1000
B7	> 1000
B8	> 1000

Molecular target: recombinant human plasma kallikrein/KLKB1 Protein (human, UniProt P03952 20-638)
Assay: substrate peptide degradation inhibition

Sequence of recombinant human plasma kallikrein/KLKB1 Protein (P03952 20-638): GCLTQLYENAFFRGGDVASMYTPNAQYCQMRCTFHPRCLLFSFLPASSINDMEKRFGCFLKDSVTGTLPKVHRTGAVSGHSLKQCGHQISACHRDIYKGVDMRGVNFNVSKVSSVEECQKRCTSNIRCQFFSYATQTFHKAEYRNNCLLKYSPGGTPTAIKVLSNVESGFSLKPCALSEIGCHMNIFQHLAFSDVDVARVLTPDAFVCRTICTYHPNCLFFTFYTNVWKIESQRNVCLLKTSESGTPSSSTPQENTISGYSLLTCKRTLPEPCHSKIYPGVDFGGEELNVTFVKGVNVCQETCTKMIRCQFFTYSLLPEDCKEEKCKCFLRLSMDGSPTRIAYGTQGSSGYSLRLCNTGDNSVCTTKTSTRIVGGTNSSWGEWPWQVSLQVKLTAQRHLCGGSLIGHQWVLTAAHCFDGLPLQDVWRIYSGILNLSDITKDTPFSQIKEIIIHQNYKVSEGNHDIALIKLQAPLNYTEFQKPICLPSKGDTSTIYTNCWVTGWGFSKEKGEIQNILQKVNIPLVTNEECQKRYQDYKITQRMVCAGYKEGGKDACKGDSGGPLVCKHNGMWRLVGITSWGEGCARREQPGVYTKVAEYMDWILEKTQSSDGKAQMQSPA

Binder	IC50 [nM]
B1	> 1000
B2	> 1000
B3	> 1000
B4	> 1000
B5	> 1000
B6	> 1000
B7	> 1000
B8	> 1000

Molecular target: active hMMP-9(cat)_D185A (UniProt P14780 107-449)
Assay: substrate peptide degradation inhibition

Sequence of active hMMP-9(cat)_D185A (P14780 107-449 D185A): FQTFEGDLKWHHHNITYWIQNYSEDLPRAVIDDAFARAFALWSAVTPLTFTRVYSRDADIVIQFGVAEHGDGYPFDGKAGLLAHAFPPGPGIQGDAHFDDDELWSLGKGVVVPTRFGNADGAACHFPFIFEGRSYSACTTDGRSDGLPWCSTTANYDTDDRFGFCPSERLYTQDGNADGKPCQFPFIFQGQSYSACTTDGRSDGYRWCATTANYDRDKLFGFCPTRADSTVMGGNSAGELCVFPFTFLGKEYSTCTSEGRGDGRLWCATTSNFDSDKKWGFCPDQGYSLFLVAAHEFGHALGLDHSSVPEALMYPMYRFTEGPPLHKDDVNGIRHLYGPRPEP

Binder	IC50 [nM]
B2	310
B3	29

Molecular target: active hMMP-9(cat)_Q199G (UniProt P14780 107-449)
Assay: substrate peptide degradation inhibition

Sequence of active hMMP-9(cat)_Q199G (P14780 107-449 Q199G): as the sequence (P14780 107-449 D185A) above, with A79D, Q93G counted along it

Binder	IC50 [nM]
B2	22
B3	40

Molecular target: active hMMP-9(cat)_Y179A (UniProt P14780 107-449)
Assay: substrate peptide degradation inhibition

Sequence of active hMMP-9(cat)_Y179A (P14780 107-449 Y179A): as the sequence (P14780 107-449 D185A) above, with Y73A, A79D counted along it

Binder	IC50 [nM]
B2	81
B3	55

Molecular target: active hMMP-9(cat)_F110A (UniProt P14780 107-449)
Assay: substrate peptide degradation inhibition

Sequence of active hMMP-9(cat)_F110A (P14780 107-449 F110A): as the sequence (P14780 107-449 D185A) above, with F4A, A79D counted along it

Binder	IC50 [nM]
B2	7.3
B3	69
